{
  "source": "patent CN111363043A",
  "about": "(FUZHOU MAIXIN BIOTECHNOLOGY DEV CO LTD, dated 2020)",
  "target": "T1, CD20蛋白 (UniProt P11836, 297 amino acids) (human, UniProt P11836 1-297)",
  "T1 construct": "whole, on cells; Endogenous CD20 in formalin-fixed paraffin tissue sections (B-cell lymphoma, tonsil, appendix) detected by IHC. 'Human' is stated for CD20 in the abstract; The species of the tissues is not explicitly stated",
  "T1 sequence (looked up)": "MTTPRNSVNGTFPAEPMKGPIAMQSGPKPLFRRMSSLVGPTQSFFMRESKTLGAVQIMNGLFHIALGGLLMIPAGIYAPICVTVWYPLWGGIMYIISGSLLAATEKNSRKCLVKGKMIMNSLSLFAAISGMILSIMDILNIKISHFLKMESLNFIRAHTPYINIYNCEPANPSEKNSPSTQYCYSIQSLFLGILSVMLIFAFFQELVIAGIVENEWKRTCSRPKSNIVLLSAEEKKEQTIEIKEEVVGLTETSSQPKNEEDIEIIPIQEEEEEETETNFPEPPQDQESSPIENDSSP",
  "assay": "IHC, appendix tissue (Fig. 5)",
  "data": [
    {"binder": "抗CD20蛋白单克隆抗体 (secreted by mouse hybridoma cell line AbM58020-32A8-PU, CGMCC NO.17491) (antibody, V domains shown, also called AbM58020-32A8-PU的CD20; AbM58020-32A8-PU杂交瘤分泌抗体) VH: EVKLQESGPSLVKPGASVKISCKASGNTFTDYYMNWVRQSHGQSLEWIGRFIPSTAKTNYNHKFKDKATLTLDTSLSTAYMQLNSLTSEDSAVYYCRSDFAFWGQGTLVTVSA VL: DILMTQSPLSLSITIGQPASISCKSSQSLLYSNGKTYLNWLLQRPGQSPKRLIYIVSKLDSGVPDRFTGSGSGTDFTLKISRVEAEDLGVYYCGQGTHYPPTFGGGTKLEIK", "values": [
      {"measurement": "binding result", "result": "binds"}
    ]}
  ]
}
